Experimental data from patent US20170044269A1 (WASHINGTON UNIVERSITY, published 2017).

Experiments:
[1] = target: T1, purified human carcinoembryonic antigen (hCEA) protein (human, UniProt P06731 35-685, limits assumed); assay: dilution ELISA, hCEA coated on plate, VHH detected with HRP/anti-E-tag mAb
T1 construct: Bought protein coated on ELISA plates or used in solution to pre-incubate the virus; also called human CEA protein; recombinant hCEA protein (ab742)
T1 sequence (looked up): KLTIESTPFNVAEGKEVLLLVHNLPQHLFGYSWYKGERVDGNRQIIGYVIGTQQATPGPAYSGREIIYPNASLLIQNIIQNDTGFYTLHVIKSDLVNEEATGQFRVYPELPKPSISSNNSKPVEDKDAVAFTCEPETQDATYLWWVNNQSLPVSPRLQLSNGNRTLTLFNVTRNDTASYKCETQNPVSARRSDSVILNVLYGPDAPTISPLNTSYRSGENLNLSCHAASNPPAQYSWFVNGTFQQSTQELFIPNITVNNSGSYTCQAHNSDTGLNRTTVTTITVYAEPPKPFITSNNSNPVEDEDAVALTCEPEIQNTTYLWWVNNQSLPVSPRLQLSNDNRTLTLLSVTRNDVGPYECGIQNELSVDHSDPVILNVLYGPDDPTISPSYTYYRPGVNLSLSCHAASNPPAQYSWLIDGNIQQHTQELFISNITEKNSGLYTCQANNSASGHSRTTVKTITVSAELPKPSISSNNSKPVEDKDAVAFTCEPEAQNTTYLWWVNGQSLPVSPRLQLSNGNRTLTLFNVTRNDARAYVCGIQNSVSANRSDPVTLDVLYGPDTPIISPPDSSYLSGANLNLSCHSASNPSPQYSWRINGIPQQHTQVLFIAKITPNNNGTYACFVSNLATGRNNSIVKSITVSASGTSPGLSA
Method: Nunc Maxisorb plates (Nunc) were coated overnight at 4° C. with 1 μg/ml human CEA protein (Abeam, Cambridge, Mass.). The plates were blocked in binding buffer containing 5% w/v non-fat milk in Tris-buffered saline (TBS). […] Plates were incubated at 25° C. for one hour and then washed three times with TBS. Bound VHHs were detected with HRP/anti-E-tag mAb (Bethyl Laboratories, Montgomery, Tex.).
The plates for enzyme-linked immunosorbent assay were coated with purified hCEA protein and then purified VHH were added in wells at various concentrations. (FIG. 2A) Bound VHHs were detected with HRP/anti-E-tag mAb. […] The EC₅₀ values are the VHH concentration that produced 50% maximum signal on the ELISAs.

[2] = target: T1, purified human carcinoembryonic antigen …; assay: ELISA, hCEA coated on plate, virions detected with anti-adenovirus goat Ab
[3] = target: T2, human carcinoembryonic antigen (hCEA) expressed on cells (human, UniProt P06731 35-685); assay: cell binding for one hour, Ad hexon gene copy number by qPCR, MC38CEA against MC38 cells
T2 construct: whole, on cells; also called hCEA on MC38CEA cells; hCEA on PC-3, LS174T, A549, HS766T cells
T2 sequence (looked up): T1 sequence (looked up)

[4] = target: T2, human carcinoembryonic antigen (hCEA) …; assay: cell-based or functional assay
[5] = target: T2, human carcinoembryonic antigen (hCEA) …; assay: cell binding for one hour at 1x10^3 vp per cell, Ad hexon gene copy number per 20 ng total DNA by qPCR
[6] = target: T2, human carcinoembryonic antigen (hCEA) …; assay: cell binding for one hour at 5x10^3 v.p. per cell, hexon qPCR; hCEA up-regulated by irradiation

B1: JJB-B2 (VHH)
VHH: QVQLVETGGGLVQPGGSLRLSCAASESIFSTYAMGWYRQAPGKQRELVAAITTNDIANYADSVKGRFTISRDNAKNTVYLQMNSLNPEDTAVYYCNAIFPPYNYWGQGTQVTVSS
notes: Alpaca anti-hCEA VHH, expressed and purified as a thioredoxin fusion protein; also called clone B2; B2 sdAb; not shown: Thioredoxin fusion partner, E-tag and any linkers
- EC50 [1]: ~0.2 nM

B2: Ad5Luc (Ad5 vector with wild-type Ad5 fiber) (other)
chain: MKRARPSEDTFNPVYPYDTETGPPTVPFLTPPFVSPNGFQESPPGVLSLRLSEPLVTSNGMLALKMGNGLSLDEAGNLTSQNVTTVSPPLKKTKSNINLEISAPLTVTSEALTVAAAAPLMVAGNTLTMQSQAPLTVHDSKLSIATQGPLTVSEGKLALQTSGPLTTTDSSTLTITASPPLTTATGSLGIDLKEPIYTQNGKLGLKYGAPLHVTDDLNTLTVATGPGVTINNTSLQTKVTGALGFDSQGNMQLNVAGGLRIDSQNRRLILDVSYPFDAQNQLNLRLGQGPLFINSAHNLDINYNKGLYLFTASNNSKKLEVNLSTAKGLMFDATAIAINAGDGLEFGSPNAPNTNPLKTKIGHGLEFDSNKAMVPKLGTGLSFDSTGAITVGNKNNDKLTLWTTPAPSPNCRLNAEKDAKLTLVLTKCGSQILATVSVLAVKGSLAPISGTVQSAHLIIRFDENGVLLNNSFLDPEYWNFRNGDLTEGTAYTNAVGFMPNLSAYPKSHGKTAKSNIVSQVYLNGDKTKPVTLTITLNGTQETGDTTPSAYSMSFSWDWSGHNYINEIFATSSYTFSYIAQE
notes: Wild-type fiber on whole purified Ad5 virus particles; control vector; also called wild-type Ad5Luc; fiber unmodified control Ad5Luc vector
- binding result [2]: no binding

B3: Ad.CXCR4E1 (conditionally replicative Ad5 with wild-type Ad5 fiber) (other)
chain: B2 chain
notes: Wild-type fiber on whole purified virus particles; control vector; also called control CRAd
- binding result [3]: no binding (tested: 1x10^3 vp per cell)

B4: AdC17Luc (Ad5 vector displaying anti-hCEA fiber-fibritin-VHH chimera, clone C17) (other)
chain: MKRARPSEDTFNPVYPYDTETGPPTVPFLTPPFVSPNGFQESPPGVLSLRLSEPLVTSNGMLALKMGNGLSLDEAGNLTSQNVYSRLNEIDTKQTTVESDISAIKTSIGYPGNNSIITSVNTNTDNIASINLELNQSGGIKQRLTVIETSIGSDDIPSSIKGQIKDNTTSIESLNGIVGENTSSGLRANVSWLNQIVGTDSSGGQPSPPGSLLNRVSTIETSVSGLNNAVQNLQVEIGNNSAGIKGQVVALNTLVNGTNPNGSTVEERGLTNSIKANETNIASVTQEVNTAKGNISSLQGDVQALQEAGYIPEAPRDGQAYVRKDGEWVFLSTFLSPAGGGGSEVQLVESGGGFVQAGESLTLSCTSSTLSCTSSTLTFTPYRMAWYRQAPGKQRDLVADISSGDGRTTNYADFAKGRFTISRDNIKNTVFLRMTNLKPEDTAVYYCNTFVSFVGIARSWGQGTQVTVSSEP
- Luc expression in hCEA+ cells (MC38CEA against MC38) [4]: ~4 fold

B5: JJB-D1 (VHH)
VHH: QVQLVESGGLVQAGGSLRPSCAASGSIFLQNAMGWYRQVPGKQRELVAAITSVDSTNYADSVKGRFTISRDNAKNTVYLQMNSLKPEDTAVYYCNAPWNSDYHWGKGTLVTVSS
notes: Alpaca anti-hCEA VHH, expressed and purified as a thioredoxin fusion protein; not shown: Thioredoxin fusion partner, E-tag and any linkers
- EC50 [1]: ~1 nM

B6: Ad.CXCR4E1.B2 (conditionally replicative Ad5 with fiber-fibritin chimera expressing anti-hCEA sdAb clone B2) (other)
chain: MKRARPSEDTFNPVYPYDTETGPPTVPFLTPPFVSPNGFQESPPGVLSLRLSEPLVTSNGMLALKMGNGLSLDEAGNLTSQNVYSRLNEIDTKQTTVESDISAIKTSIGYPGNNSIITSVNTNTDNIASINLELNQSGGIKQRLTVIETSIGSDDIPSSIKGQIKDNTTSIESLNGIVGENTSSGLRANVSWLNQIVGTDSSGGQPSPPGSLLNRVSTIETSVSGLNNAVQNLQVEIGNNSAGIKGQVVALNTLVNGTNPNGSTVEERGLTNSIKANETNIASVTQEVNTAKGNISSLQGDVQALQEAGYIPEAPRDGQAYVRKDGEWVFLSTFLSPAGGGSQVQLVETGGGLVQPGGSLRLSCAASESIFSTYAMGWYRQAPGKQRELVAAITTNDIANYADSVKGRFTISRDNAKNTVYLQMNSLNPEDTAVYYCNAIFPPYNYWGQGTQVTVSSEPKTPKPQ
notes: domain: N-terminal Ad5 fiber tail region;domain: trimerizing domain of the fibritin protein; Chimeric fiber on whole purified virus particles; also called FFB2; fiber-fibritin-B2
- fold binding to hCEA(+) MC38CEA cells against hCEA(-) MC38 cells [5]: ~25 fold

B7: JJB-A3 (VHH)
VHH: QVQLVETGGGLVQPGGSLRLSCAASGRISDINAMGWYRQAPGKQRELVAAITSVGSNYVDSVKGRFTISKDNAKNTVYLQMYSLNPEDTAVYYCNTQCGTWLVCDGRDQWGKGTLVTVSS
notes: Alpaca anti-hCEA VHH, expressed and purified as a thioredoxin fusion protein; the methods name only JJB-A3; not shown: Thioredoxin fusion partner, E-tag and any linkers
- EC50 [1]: ~0.15 nM

B8: AdVHH122Luc (Ad5 vector displaying anti-EGFR fiber-fibritin-VHH chimera, clone VHH122) (other)
chain: MKRARPSEDTFNPVYPYDTETGPPTVPFLTPPFVSPNGFQESPPGVLSLRLSEPLVTSNGMLALKMGNGLSLDEAGNLTSQNVYSRLNEIDTKQTTVESDISAIKTSIGYPGNNSIITSVNTNTDNIASINLELNQSGGIKQRLTVIETSIGSDDIPSSIKGQIKDNTTSIESLNGIVGENTSSGLRANVSWLNQIVGTDSSGGQPSPPGSLLNRVSTIETSVSGLNNAVQNLQVEIGNNSAGIKGQVVALNTLVNGTNPNGSTVEERGLTNSIKANETNIASVTQEVNTAKGNISSLQGDVQALQEAGYIPEAPRDGQAYVRKDGEWVFLSTFLSPAGGGGSEVQLQESGGGLVQAGDSLRLSCLVSGRSFNSYTMGWFRQAPGKEREFVAAILWSGPTTYYADSVKGRFTISRDNAKNTVYLQMNSLKPEDTAVYYCAAALGVLVLAPGNVYSYWGQGTQVTVSS
notes: domain: N-terminal Ad5 fiber tail region;domain: entire fibritin protein with the trimerizing foldon domain; Isogenic control vector; chimeric fiber on whole purified Ad5 virus particles; also called FF-VHH122
- binding result [2]: no binding

B9: JJB-B5 (VHH)
VHH: QVQLVETGGGLVQPGGSLRPSCTASGSIFSIYAMGWYRQASGKQRELVALITRDEVFNYADSVKGRFTISRDNAKDTVYLQMNSLKPEDTAVYYCWVETVNDHYNSGVEDYWGQGTQVTVSS
notes: as for B5
- EC50 [1]: ~50 nM

B10: AdB2Luc (Ad5 vector displaying anti-hCEA fiber-fibritin-VHH chimera, clone B2) (other)
chain: MKRARPSEDTFNPVYPYDTETGPPTVPFLTPPFVSPNGFQESPPGVLSLRLSEPLVTSNGMLALKMGNGLSLDEAGNLTSQNVYSRLNEIDTKQTTVESDISAIKTSIGYPGNNSIITSVNTNTDNIASINLELNQSGGIKQRLTVIETSIGSDDIPSSIKGQIKDNTTSIESLNGIVGENTSSGLRANVSWLNQIVGTDSSGGQPSPPGSLLNRVSTIETSVSGLNNAVQNLQVEIGNNSAGIKGQVVALNTLVNGTNPNGSTVEERGLTNSIKANETNIASVTQEVNTAKGNISSLQGDVQALQEAGYIPEAPRDGQAYVRKDGEWVFLSTFLSPAGGGGSQVQLVETGGGLVQPGGSLRLSCAASESIFSTYAMGWYRQAPGKQRELVAAITTNDIANYADSVKGRFTISRDNAKNTVYLQMNSLNPEDTAVYYCNAIFPPYNYWGQGTQVTVSSEPKTPKPQ
notes: domain: N-terminal Ad5 fiber tail region;domain: entire fibritin protein with the trimerizing foldon domain; The chimeric fiber stood in the assay on whole purified Ad5 virus particles (other capsid proteins present); also called FF-VHH B2; FF-B2
- fold increase of Ad hexon gene copy number in irradiated (6 Gy) against mock-treated A549 cells [6]: 5.1 fold
- fold increase of Ad hexon gene copy number in irradiated (6 Gy) against mock-treated LS174T cells [6]: 3.2 fold
- fold increase of Ad hexon gene copy number in irradiated (6 Gy) against mock-treated PC-3 cells [6]: 2.8 fold
- reporter gene (Luc) expression in hCEA-positive MC38CEA cells in comparison with MC38 cells [4]: > 55 fold
